Bridge positions count the residues as written; N and C are the ends. Peptide text beside a SMILES is read from it.

Broadly, the Ki is the dissociation constant of the complex between target and ligand, obtained from inhibition or displacement. High values mean weaker binding, low ones tighter binding. As a reminder, the Kd is the equilibrium constant for the complex coming apart. High values mean weaker binding, low ones tighter binding.

Data set [1] deals with T1, GC-C (Ugn receptor) in T84 cell membranes (Homo sapiens, UniProt P25092).
T1 construct: plasma membranes derived from the T84 cell line, which abundantly expresses GC‐C; endogenous in cells; host or cells: T84 cell membranes
T1 sequence (P25092 24-1073): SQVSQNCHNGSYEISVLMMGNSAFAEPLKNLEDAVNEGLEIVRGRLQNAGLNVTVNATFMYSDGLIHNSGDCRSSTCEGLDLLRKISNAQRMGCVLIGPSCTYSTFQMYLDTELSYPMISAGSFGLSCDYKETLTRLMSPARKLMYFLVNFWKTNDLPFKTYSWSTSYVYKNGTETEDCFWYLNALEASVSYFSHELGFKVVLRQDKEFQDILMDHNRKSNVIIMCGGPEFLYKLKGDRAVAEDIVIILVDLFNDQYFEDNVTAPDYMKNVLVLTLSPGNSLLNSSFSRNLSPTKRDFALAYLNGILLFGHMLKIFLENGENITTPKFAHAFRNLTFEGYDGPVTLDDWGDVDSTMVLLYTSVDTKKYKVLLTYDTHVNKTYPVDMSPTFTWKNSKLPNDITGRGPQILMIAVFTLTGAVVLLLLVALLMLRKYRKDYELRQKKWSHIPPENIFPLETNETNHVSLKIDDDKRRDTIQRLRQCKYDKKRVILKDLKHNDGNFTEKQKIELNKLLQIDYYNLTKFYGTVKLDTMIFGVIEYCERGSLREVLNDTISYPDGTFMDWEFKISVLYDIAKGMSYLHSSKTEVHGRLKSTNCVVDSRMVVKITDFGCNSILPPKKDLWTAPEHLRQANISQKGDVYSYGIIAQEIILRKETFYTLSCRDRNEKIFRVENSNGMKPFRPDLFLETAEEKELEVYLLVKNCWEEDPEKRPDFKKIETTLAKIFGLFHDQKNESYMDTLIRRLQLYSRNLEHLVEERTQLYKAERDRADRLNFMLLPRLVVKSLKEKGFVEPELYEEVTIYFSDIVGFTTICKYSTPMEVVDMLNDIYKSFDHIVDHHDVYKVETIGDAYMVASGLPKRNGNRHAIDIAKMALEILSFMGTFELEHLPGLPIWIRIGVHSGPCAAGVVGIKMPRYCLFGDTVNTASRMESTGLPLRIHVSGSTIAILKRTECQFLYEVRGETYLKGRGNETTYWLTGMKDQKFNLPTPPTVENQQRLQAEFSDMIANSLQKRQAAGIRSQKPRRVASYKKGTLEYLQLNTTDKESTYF
As to the kind of experiment: Competitive Ugn binding assay (125I-Y-Ugn, T84 cell membranes). Conditions: pH 4.5, 1 h at 25°C; for Ki: displacement of 1 nmol/L 125I-Y-Ugn, T84 cell membranes, triplicate, rat Ugn n = 8 (R2 0.9985), rat Gn n = 3 (R2 0.9587), rat proUgn n = 3 (R2 0.9677). Here is the method:
Urine samples were first dialyzed against deionized H2O, using SpectraPor® 500‐M.W. cutoff dialysis membrane (Spectrum Laboratories Inc., Rancho Domingo, CA), then dried (Savant SpeedVac, Thermo Electron Corporation, Waltham, MA) and re‐dissolved in 100 μL of assay buffer [1 nmol/L ^125I‐Y‐Ugn in NaHCO3–free HBSS supplemented with 20 mmol/L sodium citrate and 0.75% bovine serum albumin (Sigma, St. Louis, Mo, USA)]. The pH was individually adjusted to 4.5 with NaOH or HCl using a miniaturized glass microelectrode (Microelectrodes Inc., Bedford, NH). Prepared samples were incubated in triplicate for 1 h at 25°C in polypropylene tubes with 20 μL of T84 cell membranes (10–20 μg protein). Samples were then diluted in 1 mL of ice‐cold rinse buffer, rapidly filtered through Whatman GF/C glass microfiber filters presoaked in distilled water, and quickly rinsed twice with 5 mL of ice‐cold rinse buffer (50 mmol/L Tris‐HCl at pH 7.0). Bound radioligand (retained by the filter) was quantified with a gamma counter (Packard Cobra, PerkinElmer Life and Analytical Sciences Inc., Waltham, MA). Ugn concentrations in sample solutions were calculated by interpolation in a standard curve obtained from a dilution series of synthetic rat Ugn incubated and analyzed in parallel with the unknowns. Non‐specific binding was determined by including 10^−5 mol/L unlabeled Y‐Ugn in place of Ugn standards or unknowns.
All data were plotted as mean ± SEM (or, in the case of n = 2, as mean ± range). Paired t‐tests were used for comparison of Ugn excretion, water consumption, and food consumption. GraphPad Prism 5.0 (LaJolla, CA) was used for analysis of binding data, with formulas derived from the Cheng‐Prusoff equation: cpm bound = NSB + [(B max − NSB)/1 + 10∧[log10(competitor concentration) − log10(IC50)]}], where NSB = nonspecific binding (in the presence of saturating competitor) and B max = maximal binding (in the absence of competitor). […]
Because GC‐C, the Ugn receptor (Schulz et al. 1990), is activated at the apical membranes of the cells that form the renal tubules (White et al. 1989; Hodson et al. 2006; Santos‐Neto et al. 2006), we can evaluate renal Ugn signaling (the presence of Ugn within the tubule lumen) by measuring the rate at which Ugn is excreted in urine (UUgnV). However, the conventional Ugn bioassay, which measures levels of the peptide by quantifying its stimulatory effect on ligand‐activated cGMP synthesis (Carrithers et al. 1999, 2000a), is compromised by high levels of cGMP that are naturally present in urine. […]
It can quantify Ugn in the picomolar range (Fig. 2A, black circles), allowing us to perform triplicate measurements of Ugn in rat urine samples as small as 20 μL. […]

The conditions of data set [2]: cited from earlier work. From the text:
To investigate this in a statistically reliable manner, we obtained single plasma samples from a larger number of individual animals at a specific time of day (3 AM) under each dietary condition. […] Recent speculation has focused on proUgn, rather than Ugn, as the endocrine mediator of this putative signaling axis, because (1) proUgn is by far the most abundant molecular species stored in tissues and circulating in plasma (Moss et al. 2008), and (2) when isotopically labeled recombinant p ...

For data set [3] the following is noted: intravascular infusion, rodents; ref none printed in abstract; cited from earlier work. The source says:
Abstract The peptide uroguanylin (Ugn) is expressed at significant levels only in intestine and kidney, and is stored in both tissues primarily (perhaps exclusively) as intact prouroguanylin (proUgn). […] In conjunction with previous studies, this observation critically strengthens the contention that Ugn is an authentic endocrine agent as follows: (1) Ablation of the Ugn gene leads to hypertension (Lorenz et al. 2003; Elitsur et al. 2006), an appropriate phenotype for an animal that lacks an endocrine mechanism involved in electrolyte homeostasis.

The nature of data set [4]: Tissue (vascular) ligation studies, plasma proUgn. Format: in vivo, rat. The procedure:
Rats were anesthetized (sodium pentobarbital, 60 mg/kg, ip) and prepared for clearance experiments as previously described (Moss et al. 2010). They received an initial infusion of isotonic saline (6% of body weight), followed by an infusion of 10% mannitol in 0.9% saline at 100 μL/min containing FITC‐labeled inulin (400 μg/mL, Sigma Chemical Co. St Louis, MO). For renal ligations, 5.0 silk thread ligatures were placed loosely around right and left renal arteries, and tightened after baseline data had been collected. For intestinal ligations, the bowels were exteriorized and wrapped in saline‐soaked gauze. […] Blood was sampled every 40 min from the femoral artery.
ProUgn concentrations in plasma and tissues were measured by quantitative western blotting, as described previously (Moss et al. 2008). Samples were loaded on 4–12% polyacrylamide gels (Invitrogen Corp., Carlsbad, CA), and a standard curve was constructed with known amounts of recombinant rat proUgn (Ironwood Pharmaceuticals, Cambridge, MA). Gels were blotted to nitrocellulose and probed with primary antibody 6910 (Moss et al. 2008; Qian et al. 2008) and an IR dye‐coupled secondary antibody. Imaging and quantification were performed with an Odyssey System (LI‐COR Biosciences, Lincoln, NE). Values were corrected for recovery, as determined in parallel control assays with known amounts of recombinant rat proUgn.
Previous surveys have identified only two organs (intestine and kidney) that contain levels of proUgn polypeptide sufficient to generate the relatively large circulating pool of proUgn (Moss et al. 2008; Qian et al. 2008). To determine the extent to which each of these organs contributes to the plasma pool, we ligated either the splanchnic or the renal blood supply, and measured the effects of each ligation on circulating proUgn levels. […] For the renal ligations, we also infused each animal with inulin (a reference standard used to assess glomerular filtration rates), and measured plasma inulin at each time point (Fig. 5A, left panel, white symbols). […]

In data set [1], `CC[C@H](C)[C@@H]1NC(=O)[C@H](CCC(=O)O)NC(=O)[C@@H](NC(=O)[C@@H](NC(=O)[C@H](CC(N)=O)NC(=O)[C@@H]2CCCN2)[C@@H](C)O)CSSC[C@@H]2NC(=O)[C@H](C)NC(=O)[C@H](C)NC(=O)[C@H](Cc3ccc(O)cc3)NC(=O)[C@H](C)NC(=O)[C@H](CSSC[C@@H](C(=O)O)NC(=O)CNC(=O)[C@H]([C@@H](C)O)NC2=O)NC1=O` [Gn, guanylin] (H-PNTCEICAYAACTGC-OH; disulfide 4-12, 7-15) gave an inhibition constant Ki of 170 nM.
In turn, `CC[C@H](C)[C@@H]1NC(=O)[C@@H]2CSSC[C@@H](C(=O)O)NC(=O)CNC(=O)[C@H]([C@@H](C)O)NC(=O)[C@H](CSSC[C@H](NC(=O)[C@H](CCC(=O)O)NC(=O)[C@H](CC(=O)O)NC(=O)[C@@H](N)[C@@H](C)O)C(=O)N[C@@H](CCC(=O)O)C(=O)N[C@@H](CC(C)C)C(=O)N2)NC(=O)[C@H](C)NC(=O)[C@H](C(C)C)NC(=O)[C@H](CC(N)=O)NC1=O` [Ugn, uroguanylin] (H-TDECELCINVACTGC-OH; disulfide 4-12, 7-15) returned an inhibitory constant (Ki) in data set [1] of 1.04 nM.
Consider “^125I‐Y‐Ugn: N‐tyrosyl rat Ugn (Y‐Ugn, Bachem Inc.) iodinated as previously described; radioligand (YTDECELCINVACTGC; 125I-iodinated on the added N-terminal Tyr; two disulfides (Cys1-Cys3 and Cys2-Cys4 of the uroguanylin peptide, by convention); The 15-residue C-terminal peptide limits are by convention; check residu)”, for which the equilibrium dissociation constant (Kd) in data set [1] (T84 cell membranes (10–20 μg protein), filtration, gamma counter, R2 0.9659, n = 3) stood at 1.5 nM.

B1: prouroguanylin (protein, UniProt P70668 22-106, looked up)
pro-form: VYIKYHGFQVQLESVKKLNELEEKQMSDPQQQKSGLLPDVCYNPALPLDLQPVCASQEAASTFKALRTIATDECELCINVACTGC
modifications: pro-form
notes: Recombinant rat proUgn, Ironwood Pharmaceuticals; also endogenous propeptide in plasma
Regarding B1, in data set [2] (intravascular bolus of exogenous proUgn, ref Moss et al. 2010), the “Time for appearance of nearly all recovered Ugn in urine after proUgn” value is 30 to 60 min. Further, in data set [2] (isotopically labeled recombinant proUgn infused intravascularly, ref Qian et al. 2008), the “Renal filtration and conversion” value was “readily filtered from plasma by the kidney, and converted within the kidney to Ugn”. For the same molecule, in data set [1], the Ki turned out to be 8900 nM. For the same molecule, in data set [3], the Natriuretic response result is given as “natriuretic responses in rodents”. The “Plasma proUgn after renal artery ligation” value in data set [4] (endogenous, anesthetized rats, renal artery ligation) is “rose rapidly”. In addition, the “Plasma proUgn after splanchnic ligation” value in data set [4] (endogenous, anesthetized rats, splanchnic ligation) is “fell to barely detectable levels”. Besides, the “Postligation rate of rise of plasma proUgn relative to inulin” value in data set [4] (renal artery ligation, FITC-inulin infused, percentage basis) is reported as “nearly identical to that of inulin”.

Values taken from PMC4873633, “Dietary salt regulates uroguanylin expression and signaling activity in the kidney, but not in the intestine” (Physiological Reports, 2016).
